In patent US11325966:

Columns and labels:
Experiment in all cases: cell-based or functional assay
[1] = target: HIV-1 YU2 Env N160K, on pseudovirus (HIV-1) (UniProt P35961)
[2] = target: HIV-1 envelope (Env) of pseudovirus 7030102001E5 (Rev-) (HIV-1)
[3] = target: HIV-1 envelope (Env) of pseudovirus 235-47 (HIV-1)
[4] = target: HIV-1 envelope (Env) of pseudovirus T257-31 (HIV-1)
[5] = target: HIV-1 envelope (Env) of pseudovirus YU2_N160K (HIV-1) (UniProt P35961)
[6] = target: HIV-1 envelope (Env) of pseudovirus Ce0682_E4 (HIV-1)
[7] = target: HIV-1 envelope (Env) of pseudovirus 263-8 (HIV-1)
[8] = target: HIV-1 envelope (Env) of pseudovirus 3817.v2.c59 (HIV-1)
[9] = target: HIV-1 envelope (Env) of pseudovirus R2184.c04 (HIV-1)
[10] = target: HIV-1 envelope (Env) of pseudovirus CNE20 (HIV-1)
[11] = target: HIV-1 envelope (Env) of pseudovirus X1254_c3 (HIV-1)
[12] = target: HIV-1 envelope (Env) of pseudovirus R3265.c06 (HIV-1)
[13] = target: HIV-1 envelope (Env) of pseudovirus 3016.v5.c45 (HIV-1)
[14] = target: HIV-1 envelope (Env) of pseudovirus HIV-16055-2.3 (HIV-1)
[15] = target: HIV-1 envelope (Env) of pseudovirus CAAN5342.A2 (HIV-1)
[16] = target: HIV-1 envelope (Env) of pseudovirus CAP210.2.00.E8 (HIV-1)
[17] = target: HIV-1 envelope (Env) of pseudovirus WITO4160.33 (HIV-1)
[18] = target: HIV-1 envelope (Env) of pseudovirus BJOX010000.06.2 (HIV-1)
[19] = target: HIV-1 envelope (Env) of pseudovirus ZM197M.PB7 (HIV-1)
[20] = target: HIV-1 envelope (Env) of pseudovirus BJOX028000.10.3 (HIV-1)
[21] = target: HIV-1 envelope (Env) of pseudovirus Q461.e2 (HIV-1)
[22] = target: HIV-1 envelope (Env) of pseudovirus CNE5 (HIV-1)
[23] = target: HIV-1 envelope (Env) of pseudovirus 246F C1G (HIV-1)
[24] = target: HIV-1 envelope (Env) of pseudovirus Ce704809221_1B3 (HIV-1)
[25] = target: HIV-1 envelope (Env) of pseudovirus CNE19 (HIV-1)
[26] = target: HIV-1 envelope (Env) of pseudovirus CNE58 (HIV-1)
[27] = target: HIV-1 envelope (Env) of pseudovirus 231966.c02 (HIV-1)
[28] = target: HIV-1 envelope (Env) of pseudovirus C4118.c09 (HIV-1)
[29] = target: HIV-1 envelope (Env) of pseudovirus CNE52 (HIV-1)
[30] = target: HIV-1 envelope (Env) of pseudovirus 3301.v1.c24 (HIV-1)
[31] = target: HIV-1 envelope (Env) of pseudovirus ZM249M.PL1 (HIV-1)
[32] = target: HIV-1 envelope (Env) of pseudovirus 6041.v3.c23 (HIV-1)
[33] = target: HIV-1 envelope (Env) of pseudovirus CNE17 (HIV-1)
[34] = target: HIV-1 envelope (Env) of pseudovirus RHPA4259.7 (HIV-1)
[35] = target: HIV-1 envelope (Env) of pseudovirus YU2_N276D (HIV-1) (UniProt P35961)
[36] = target: HIV-1 envelope (Env) of pseudovirus BG505/T332N (HIV-1)
[37] = target: BG505 (T332N) N386A (HIV-1)
BG505 (T332N) (HIV-1) = target: BG505 (T332N) (HIV-1)

BG18 IgG (354BG18) (antibody)
IC50 in TZM-bl assay [1]: 0.028 µg/mL | IC80 in TZM-bl assay [1]: 0.15 µg/mL

BG1 (antibody)
IC50 in TZM-bl assay [2]: > 30 µg/mL | IC80 in TZM-bl assay [2]: > 30 µg/mL | IC50 in TZM-bl assay [3]: 1.27 µg/mL | IC80 in TZM-bl assay [3]: 4.38 µg/mL | IC50 in TZM-bl assay [4]: > 30 µg/mL | IC80 in TZM-bl assay [4]: > 30 µg/mL | IC50 in TZM-bl assay [5]: > 30 µg/mL | IC80 in TZM-bl assay [5]: > 30 µg/mL | IC50 in TZM-bl assay [6]: > 30 µg/mL | IC80 in TZM-bl assay [6]: > 30 µg/mL | IC50 in TZM-bl assay [7]: > 30 µg/mL | IC80 in TZM-bl assay [7]: > 30 µg/mL | IC50 in TZM-bl assay [8]: 11.1 µg/mL | IC80 in TZM-bl assay [8]: > 30 µg/mL | IC50 in TZM-bl assay [9]: > 30 µg/mL | IC80 in TZM-bl assay [9]: > 30 µg/mL | IC50 in TZM-bl assay [10]: 4.26 µg/mL | IC80 in TZM-bl assay [10]: > 30 µg/mL | IC50 in TZM-bl assay [11]: 0.048 µg/mL | IC80 in TZM-bl assay [11]: 0.086 µg/mL | IC50 in TZM-bl assay [12]: 0.611 µg/mL | IC80 in TZM-bl assay [12]: 3.44 µg/mL | IC50 in TZM-bl assay [13]: > 30 µg/mL | IC80 in TZM-bl assay [13]: > 30 µg/mL | IC50 in TZM-bl assay [14]: 4.3 µg/mL | IC80 in TZM-bl assay [14]: 16.9 µg/mL | IC50 in TZM-bl assay [15]: > 30 µg/mL | IC80 in TZM-bl assay [15]: > 30 µg/mL | IC50 in TZM-bl assay [16]: > 30 µg/mL | IC80 in TZM-bl assay [16]: > 30 µg/mL | IC50 in TZM-bl assay [17]: 0.002 µg/mL | IC80 in TZM-bl assay [17]: 0.014 µg/mL | IC50 in TZM-bl assay [18]: > 30 µg/mL | IC80 in TZM-bl assay [18]: > 30 µg/mL | IC50 in TZM-bl assay [19]: > 30 µg/mL | IC80 in TZM-bl assay [19]: > 30 µg/mL | IC50 in TZM-bl assay [20]: > 30 µg/mL | IC80 in TZM-bl assay [20]: > 30 µg/mL | IC50 in TZM-bl assay [21]: > 30 µg/mL | IC80 in TZM-bl assay [21]: > 30 µg/mL | IC50 in TZM-bl assay [22]: 0.351 µg/mL | IC80 in TZM-bl assay [22]: 1.28 µg/mL | IC50 in TZM-bl assay [23]: > 30 µg/mL | IC80 in TZM-bl assay [23]: > 30 µg/mL | IC50 in TZM-bl assay [24]: 3.25 µg/mL | IC80 in TZM-bl assay [24]: 18.5 µg/mL | IC50 in TZM-bl assay [25]: 1.27 µg/mL | IC80 in TZM-bl assay [25]: 10.9 µg/mL | IC50 in TZM-bl assay [26]: > 30 µg/mL | IC80 in TZM-bl assay [26]: > 30 µg/mL | IC50 in TZM-bl assay [27]: > 30 µg/mL | IC80 in TZM-bl assay [27]: > 30 µg/mL | IC50 in TZM-bl assay [28]: 22.8 µg/mL | IC80 in TZM-bl assay [28]: > 30 µg/mL | IC50 in TZM-bl assay [29]: 0.975 µg/mL | IC80 in TZM-bl assay [29]: 5.01 µg/mL | IC50 in TZM-bl assay [30]: > 30 µg/mL | IC80 in TZM-bl assay [30]: > 30 µg/mL | IC50 in TZM-bl assay [31]: 1.22 µg/mL | IC80 in TZM-bl assay [31]: 6.79 µg/mL | IC50 in TZM-bl assay [32]: 6.75 µg/mL | IC80 in TZM-bl assay [32]: 16.6 µg/mL | IC50 in TZM-bl assay [33]: > 30 µg/mL | IC80 in TZM-bl assay [33]: > 30 µg/mL | IC50 in TZM-bl assay [34]: > 30 µg/mL | IC80 in TZM-bl assay [34]: > 30 µg/mL | IC50 in TZM-bl assay [35]: 18.8 µg/mL | IC80 in TZM-bl assay [35]: > 30 µg/mL | IC50 in TZM-bl assay [36]: 0.034 µg/mL | IC80 in TZM-bl assay [36]: 0.125 µg/mL

354BG8 (antibody)
IC50 in TZM-bl assay [37]: 0.004 µg/mL | IC50 in TZM-bl assay (BG505 (T332N) (HIV-1)): 0.007 µg/mL
